Assay results: the DeepSol protein solubility set

Test: soluble on expression in E. coli; label from the status in PepcDB or PDB records

| Sequence | soluble on expression in E. coli |
| --- | --- |
| MGSDKIHHHHHHMMNSFYNGISGVKSNSFGIDITANNIANVNTTGFKYSDAQFKDIFYTTITTQSTNPAQGGYGSGAASSQVVFEQGSPVASDGEFDVALQGKGFFGVLGADGNAYYTRNGSFRRDANGYLVDSYGNFVLGTMNPAFTGINYSDRVAGLMGDYLNTGTPVNNGFTVNSNNSFSIGTTASQGAIKVPVNMYLPPQVTQNVKWSGSLNTNTTTEVVKVDLDPSKFNITKTEDGKYVVSGSVSKEDVFSAKAGDRIILNFTDDNGVKTSFEATLDENLNFKSNELDLKGLDENSIKLDTAQISTEQQKANKDILESPIYNADGSKSTLRVTLERVLPQEGDNIQYKAIAQIYDSNGNAVGNPTEGNMVFDKNGALLQNNITSIANPNGGTINIDLGSPYDANKPGSGYSGIYIKQGVEKNVVTQQDGVAEGFFEQYNISDDGSIVAQFSNGKNAIVGKLALYNFINEQGLVAMGDNIFAATANSGDASFIMKDGQVVNTAKFKGGFLEQSNVDLSAELSNLIVTQKAFDASSKSITTSDQMIQKAINMKR | not soluble |
| MGSDKIHHHHHHMSNAKRLLVSDMKMGVDISENELLRQSEGLLQRLLFDHTTQRNIFWATDDYTTLGDAYKYDAPITTDSITGEHDTVIQPRVLKSKEEQANRTKDKAEVFTPSWVCNAQNNLIDEAWFGRKDVFNIEQPETKTWIATTEPITFPEGKTWKDYVCSTRMEITCGEAPYLVSRYDTTTGEFIPIPQRIGMLDRKLRIISENTSSTGEWLKMAQKAYKNIYAYEWQGDNLLLAREALLITFIEYYEEKFGKRPLDKSIEYIAYIISWNVWQMDGLKGVVPNSCTHGVSVLPDDLFESMEELILCPGCQNESIKKHNGTYCLIRDWGCKDPKTGENNRKIRFVDLIKNNI | not soluble |
| GSHMIAPLSVKDNDKWVDTHVGKTTEIHLKGNPTTGYMWTRVGFVGKDVLSDEILEVVCKYTPTPSSTPMVGVGGIYVVLVKPRKRGHHTLELVYTRPFEGIKPENERYTLHLNVK | soluble |
| MSLKVYITYGTADFLKTIVQKHPSENILLMQGQENAILIHETNGDTVFQAPHAYEVIDQVGEIKHPGFAVLNNIAVTQEGRPLFENRFKNRAGKVENEPGFEAIRVLRPLDSDTYVILTLWETESAFQDWQQSGSYKEAHKKRDTSAGIDTTSIFSRPSYVTTYFAVEEGGSHHHHHH | soluble |
| MGSDKIHHHHHHMTQVPPSASPADLLAVLERIATALERQGAPAVPANSLDGADAFVWHAAESWLEPVCRVNRVDIALLQGIERQRQTLYDNTLRFAHGLPANNALLWGARGTGKSSLVKAVHASVNQALTAKGAAPVALVEIHREDIPTLPRLLRILAASGRPCLLFCDDLSFDGNDSSYKSLKAVLEGGIEGRPDTVIFYATSNRRHLLAREMVENEQSTALHAGEAVEEKVSLSDRFGLWLGFHNVDQPTYFDIVDGYARAYGLDIETEDLHREAREWSMARGSRSGRTAWQFIQDLAGRLGKTLE | not soluble |
| MGSDKIHHHHHHMIYRNWLGIIGVACILFVSCKPTEVDVPITYYSSFLLKDTTVMLSKVEMDPMQVNARCMVWDGDKRVLVRTSTTDSIYAVFAYPEMKFLSYTGSLSEYKQILAECNEGFYLVKDDSLYLYHLTDKDLLQKTTTHFLYNSNKIRLSKIKKLNDKMYTAHAYTDPSYNDIRLNEFYMLDAENNILYPKGHYPERTEVRFKTIFDFKFAYAHEVWPKPDGSRILVNYVRTRRFRIYDLSARLLHDVCLDYASNKYVVDADPKRWTTFIRDCFVTDKYIYLLCPEGEQSSLVIVDWEGRPIARYRLDEKIFFFFIDPDRNLFCGINSNNGQSFYFLDLDIN | not soluble |
| MKKQLDQLTAYTPGLSPESLKKQYGIRGELHKLASNENVYGPSPKVKTAIQSHLDELYYYPESGSPKLREAISQQLNVDASRILFGAGLDEVILMISRAVLSPGDKIITSESTFGQYYHNAIVESADVIQVPLKDGGFDLDGMLQQIDNKTSLIWLCNPNNPTGTYFSHDELFNFLKRVPSDIPVLIDEAYVEFVTADDFPDTLKLQEDFDNAFLLRTFSKAYGLAGLRVGYVIASEDAIEKWNIIRPPFNVTRISEYAAIAALEDQEYLKEVTQKNSFERDKFYQIPQSQHFLPSQANFVFVKTSRSQALYDALLNVGCITRLFPNGVRITIGLPEQNNKMIEVLKHFEY | not soluble |
| MHLTCKNGEIKTIMWSNISEQFPVTGYSYWAVGVDITHLKAIEEQLKQQTSELELIFKALPDLCFLTEDDGTIIDYKAGSPTKFYVPAEAFMGKKFYEVLPTSVAQQFQEAINQVKEKGTNVIVEYPLTLNGSIDFFEARCLPLLHDKIMIIVRDITERKKTEELLNKSDTLAAIGQLAAGVAHEVRNPLTVIKGFIQLFQINKEDQERYFDLMLSEIERIEAILQEFLSIAKTDEINTEKKNIYQIFKNVVSLMNTKAIMTNIQVELFTGDKDIIIECSENQLKQVFINILQNSIEAMPNGGGISIHIKEINDDGVIIHVIDEGIGIPEERIKRLGEPFYSTKEKGTGIGLMLSYKIIESHQGTISIRSEVGVGTTVTIYLPKVLNKQSLSNCDDKCIAIRTSSNS | not soluble |
| MEAGFKRKVDYLDRPERSEVLSPEDFLQAMPIGKTASILDLGAGTGFLTIPAAKLVDNTVFALDLDAKMLELIESKAKEAGLANVETLEASMDDIPLEANSVDVVLASLVLHEADSLADVLREVSRVVKTGGYFASLEFDTKGTDLKGPPMEIQISAEKLKEELAGFGFEVVKNWQLDEGMYVSIAVKKLEHHHHHH | not soluble |
| MAMLELLYTALLYLIQPLIWIRLWVRGRKAPAYRKRWGERYGFYRHPLKPGGIMLHSVSVGETLAAIPLVRALRHRYPDLPITVTTMTPTGSERVQSAFGKDVQHVYLPYDLPDALNRFLNKVDPKLVLIMETELWPNLIAALHKRKIPLVIANARLSARSAAGYAKLGKFVRRLLRRITLIAAQNEEDGARFVALGAKNNQVTVTGSLKFDISVTPQLAAKAVTLRRQWAPHRPVWIATSTHEGEESVVIAAHQALLQQFPNLLLILVPRHPERFPDAINLVRQAGLSYITRSSGEVPSTSTQVVVGDTMGELMLLYGIADLAFVGGSLVERGGHNPLEAAAHAIPVLMGPHTFNFKDICARLEQASGLITVTDATTLAKEVSSLLTDAVYRSFYGRHAVEVLYQNQGALQRLLQLLEPYLPPKTHLEHHHHHH | not soluble |
| MSLSGTITFSTGTRAGVYQKYGELLRTELRKDMPGLDVRLMTSAGSQENVERVASGEADFTIAAADAVETYKLAGSPGAEGLRGVTRLYDDYVQLVVPSDSDIQSVRDLRGKRVAIGLPNSGVRLIATRLLKAVGIDPETDITPRADGIDTGPGRLGDELDAFFWSGGVPTDGLKEIAESSAFRFVPIGDDLVTKLHRSGGATRYYRTTNMPESAYPTVQNGAVVPTMAVSNLLVTRADVDPRLTEWLTRTVLDSRDGIGAHVHSAQLVDLRTAIYTDPLELHEGARRYYRSVKEGHHHHHH | soluble |
| MKQLAISFCIILPLACFWVLNAEDAKEAPEIREANSTVFRQKRQFGCPSNCYSSCSSSSQCQRYSVASVCVQGCCCPGNNNLDTACSGGPAVAACLGGLCGQGFFCSSNNYCCRCQSGNSTGPCVNQVCPTGFMCNTNNYCCPLGSGGVLGSCVNGVCPTGYTCGAGNLCYLSSGK | not soluble |
| MSLCRFVAYLGRPTLLENVLVRPKNSIIMQSLHARETKYRTNGDGFGLGWYSPEVSSDPALFTSVYPAWNDRNLLHLTAKIQSPCFFAHVRSASAGGVTNYNCHPFIYGDWMLMHNGEINDFIDVKRHIRHLLDDDIYHWVKGQTDSEHLFGLFLQLAKGRDITQLSVAADVLQETINKILEVIGQFGHSGPSYFNICLTNGKKIIATRYCSHEKKKPLTLHYLIGYVLSTQGLWIKEEGNPAYVVVSSERLNDLDEGWEDVPPQHMILIDENKNIQLRPLQTLGEGHHHHHH | soluble |
| MGPLCAVCESPTAFTLHFGGRCCKACAAFFRRTIALDLKYECAADDPCEIHFKFPGMRLVCRECRLRKCYSAGMRSELVRSKRENFACTRRKDSRNNSDAAPNSNSPSTRQSSSPEEMDDWSFQMFEEKPKIEDLPLTPSISHPPLPTQLMPEESSRTSSFDGGYCSSYPSSSAATHPSPPGMLYSIENNSILQYYHSMETGLCSKRRIMYTNTGMDFILDTHANLQCPFTVNDLRPHDYRNFRGMLRHDFVMLFDYATRFPEFNSFTSHEKNMFYRQIVAVDFILSSAYYTAKLGQAHRQMVLTNGEYLNMDPLPMSGNEIDARRYFDCDEDFSKYRALMPMHIAIWEESIVPFSKLNVTFEEFCLLKALTVWQATYFKLTENGREKCRRQRNIIIGFLSKMCHSPGGGGEHRVGELLMSMNYLRESAQKLTTSYVMLTVFNVLNCDSMLHEMLNFQY | not soluble |
